We go through four molecules from patent publication US20190135888A1 (Harvard, published 2019).

B1: CA33 (Rabbit Ab 909) (antibody, V domains shown)
VH: QSVEESGGRLVTPGTPLTLTCTVSGFSLSTYYMSWVRQAPGKGLEWIGIIYPSGSTYCASWAKGRFTISKASTTVDLKITSPTTEDTATYFCARPDNDGTSGYLSGFGLWGQGTLVTVSS
VL: DVVMTQTPASVSEPVGGTVTIKCQASEDISRYLVWYQQKPGQPPKRLIYKASTLASGVPSRFKGSGSGTDFTLTISDLECDDAATYYCQCTYGTYAGSFFYSFGGGTEVVVE
notes: Rabbit variable regions; also called Rabbit Antibody 909; antibody 909
B2: human aP2 (fatty acid-binding protein, adipocyte, FABP4/aP2, Homo sapiens) (other)
chain: CDAFVGTWKLVSSENFDDYMKEVGVGFATRKVAGMAKPNMIISVNGDVITIKSESTFKNTEISFILGQEFDEVTADDRKVKSTITLDGGVLVHVQKWDGKSTTIKRKREDDKLVVECVMKGVTSTRVYERA
notes: Biotinylated with Sulfo-NHS-LC-Biotin for the Octet cross-reactivity assay; also called haP2; hFABP4
B3: GCGR extracellular domain (GCGR-ecd) (receptor, UniProt P47871 26-136, looked up)
chain: AQVMDFLFEKWKLYGDQCHHNLSLLPPPTELVCNRTFDKYSCWPDTPANTTANISCPWYLPWHHKVQHRFVFKRCGPDGQWVRGPRGQPWRDASQCQMDGEEIEVQKEVAK
notes: extracellular domain; also called glucagon receptor extracellular domain; not shown: Hexahistidine and WELQ protease site added during cloning; MST was run with tag and with
B4: aP2 (recombinant aP2 of Example 1) (other)
chain: MCDAFVGTWKLVSSENFDDYMKEVGVGFATRKVAGMAKPNMIISVNGDLVTIRSESTFKNTEISFKLGVEFDEITADDRKVKSIITLDGGALVQVQKWDGKSTTIKRKRDGDKLVVECVMKGVTSTRVYERA
notes: Used unlabelled, and amine-biotinylated in the scintillation proximity assay; also called FABP4

In test [1] the target is T1, hFABP5/hMal1 (recombinant human FABP5, Sino Biological Inc.) (human, UniProt Q01469 1-135, limits assumed).
T1 construct: Biotinylated with Sulfo-NHS-LC-Biotin and loaded on streptavidin biosensors; also called FABP5/Mal1; Mal1/FABP5
T1 sequence (Q01469 whole entry): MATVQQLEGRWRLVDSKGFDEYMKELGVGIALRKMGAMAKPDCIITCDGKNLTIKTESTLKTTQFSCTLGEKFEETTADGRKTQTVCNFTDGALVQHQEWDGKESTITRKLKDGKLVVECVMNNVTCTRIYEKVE
Put plainly: Octet RED384, biotinylated human FABP on streptavidin biosensors, antibody at 800 nM. The procedure: The recombinant human proteins aP2 (generated at UCB in E. coli (see method below)), hFABP3 (Sino Biological Inc.) and hFABP5/hMall (Sino Biological Inc.) were biotinylated in a 5-fold molar excess of EZ-Link® Sulfo-NHS-LC-Biotin (Thermo Fisher Scientific) and purified from unbound biotin using a Zeba desalting column (Thermo Fisher Scientific). All binding studies were performed at 25° C. using a ForteBio Octet RED384 system (Pall ForteBio Corp.). […] Biosensors were then transferred back to PBS-T for 5 min. to measure dissociation. Non-specific binding of antibodies was monitored using unloaded biosensor tips.

For test [2], the target named is B2. Put plainly: Biacore T200, anti-aP2 IgG captured on anti-mouse IgG Fc, aP2 titrated over it; steady-state fit for CA33.
For test [3], the target named is T2, glucagon.
T2 construct: This id is also used for the endogenous glucagon of mouse serum; also called biotin-glucagon; biotinylated glucagon
T2 sequence (peptide, as listed by the source): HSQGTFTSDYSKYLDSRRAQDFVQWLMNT
Put plainly: binding curve, Response (ΔFnorm [‰]) against Ligand Concentration [nM]; table under the plot.

In test [4] the target is T2, glucagon. Put plainly: binding curve, Response (ΔFnorm [‰]) against Ligand Concentration [nM]; the table under the plot has no unit, nM is that of the axis; paragraph 390 names an Octet system; which partner is titrated is not given.
Test [5] addresses glucagon/aP2 complex (glucagon plus aP2, Example 1) (Mus musculus (Mouse), UniProt P04117 1-132, limits assumed). Put plainly: BLI (BLItz): GCGR-ecd on biotin-glucagon immobilized on streptavidin sensors, in the presence of aP2.
Test [6] addresses B3. Put plainly: binding curve, Response (ΔFnorm [‰]) against Ligand Concentration [nM]; table under the plot.
In test [7] the target is B3. Put plainly: binding curve, Response (ΔFnorm [‰]) against Ligand Concentration [nM]; the table under the plot has no unit, nM is that of the axis; paragraph 390 names an Octet system; which partner is titrated is not given.

B1: in test [1], the binding result is reported as “no binding (tested: 800 nM)”. This molecule also showed a Kd in test [2] of 2830 nM.

In the test with glucagon [3], B2 returned a logEC50 of 1.31. In addition, in the test with glucagon [4], the midpoint of the response, the EC50, lay at 20.3 nM.

For B3, the Kd in test [5] came to 54.1 nM.

For B4, the logEC50 in test [6] worked out at 2.51. Moreover, in test [7], it took 327 nM to reach a half-maximal effect (EC50).
